Biological target: PDGFRα/PDGFRβ
Test: cell-based or functional assay

B1: α/βVCV2 IgG1.1 (bispecific antibody)
heavy: EVQLVESGGGLVKPGGSLKLSCAASGFAFSSYAMSWVRQSPEKRLEWVATISSGGHYTFYPDSVKGRFTISRDNAKNTLYLQMSSLRSEDTAIYYCARRYYALDYWGQGTSVTVSSASTKGPSVFPLAPSSKSTSGGTAALGCLVKDYFPEPVTVSWNSGALTSGVHTFPAVLQSSGLYSLSSVVTVPSSSLGTQTYICNVNHKPSNTKVDKKVEPKSCGGGGSGGGGSEVQLQQSGPELVKTGASVKISCKASGYSFINHYMNWVKQSRGKSLEWIGYVSCYNGATGYNQKFKDKATFTVDTSSSTAYMQFNNLTSEDSAVYYCARRGFMEAMDYWGQGTSVTVSSEPKSSDKTHTCPPCPAPEAEGAPSVFLFPPKPKDTLMISRTPEVTCVVVDVSHEDPEVKFNWYVDGVEVHNAKTKPREEQYNSTYRVVSVLTVLHQDWLNGKEYKCKVSNKALPSSIEKTISKAKGQPREPQVYTLPPSRDELTKNQVSLTCLVKGFYPSDIAVEWESNGQPENNYKTTPPVLDSDGSFFLYSKLTVDKSRWQQGNVFSCSVMHEALHNHYTQKSLSLSPGK
light: DIVMTQSQKFMSTSLGDRVSVSCKASQNVLTNVAWYQQKPGQSPKTLIYSASYRYSGVPDRFTGSGSGTDFTLTISIVQSEDLAEYFCQQYNIYPWTFGGGTKLEIKRTVAAPSVFIFPPSDEQLKSGTASVVCLLNNFYPREAKVQWKVDNALQSGNSQESVTEQDSKDSTYSLSSTLTLSKADYEKHKVYACEVTHQGLSSPVTKSFNRGECGGGGSGGGGSDIVMTQSPFSLTVTVGEKVTMSCKSSQSLLNSRTRKNYLAWYQQKPGQSPKLLIYWASTRESGVPDRFTGSGSGTDFTLTISSVQAEDLAVYYCKQSYNLYTFGGGTKLEIK
In the case of B1, the % Inhibition of PDGFC-induced NHLF proliferation is reported as 70% and the % Inhibition of PDGFD-induced NHLF proliferation is reported as 100%.

Reference: patent US20170275357A1
